Data on two molecules can be found in US20240117018A1.

As usually defined, the IC50 is the concentration needed to halve the response being measured. The low end stands for higher potency, the high end for lower potency. Broadly, the IC80 is the concentration needed for an effect of 80%.

Holding throughout (experiment): cell-based or functional assay
Assay [1] deals with 191084 B7-19 Env pseudovirus (HIV-1).
In assay [2] the target is CNE17 Env pseudovirus (HIV-1).
For assay [3], the target named is Ce1086_B2 Env pseudovirus (HIV-1).
The target of assay [4] is Ce1176_A3 Env pseudovirus (HIV-1).
Assay [5] has as its target ZM249M.PL1 Env pseudovirus (HIV-1).

A value given as a limit tells only on which side of the number the result lay.

B1: N49P23 (antibody, V domains shown)
VH: QVRLVQSGAGARKTGASMKLSCSTSGYTFTTHHGHFINWVRQARGQGLEWMGWMNPMTGQMNIEGKFQGRVTLTRDIYSDTAYMEMTRLTTGDTGTYYCARGDFGQNYPFHYWGQGSLVIVSS
VL: LSALTQPASVSGSPGQSVTISCSGTNRYLVSWYQQHPDKAPKLIIYDDNKRPSGISDRFSASRPDDTASLTISGLQTGDEATYWCASYERFGGGTRLTVLS
For B1, the IC50 in assay [1] is 0.013 µg/mL; in assay [2] it was 0.221 µg/mL; in assay [3], 0.063 µg/mL; in assay [4], 0.297 µg/mL; in assay [5] it was more than 50 µg/mL. Besides, the IC80 in assay [1] is 0.043 µg/mL; in assay [2], 0.809 µg/mL; in assay [3], 0.303 µg/mL; in assay [4], 1.38 µg/mL; in assay [5] it was more than 50 µg/mL. The MPI in assay [1] worked out at 100; in assay [2] it was 100; in assay [3], 100; in assay [4] it was 100; in assay [5] it was 2.

B2: N49P22 (antibody, V domains shown)
V domain 1: HIQLLQSGPQVKKSGDTVRISCETSGYNFVDSRIHWVRQTPEKRLRWMGWINPLQGGVNYAPEFQGRIRMTRDTFIDTVYVDLSGLTPADTAYYYCARGIDGKSYPFHFWGHGTRVTVFS
V domain 2: RFALTQPASVSGSPGQTITITCAGGSVSWFHFPPGKTPRLIIYESSKRPSGVSPRFSGSQSGSTASLIISGLQSDDEGTYFCSILEFFGRGTLVTVLS
For B2, the half-maximal inhibitory concentration (IC50) is 0.343 µg/mL in assay [1]; 46.3 µg/mL in assay [2]; more than 50 µg/mL in assay [3]; more than 50 µg/mL in assay [4]; more than 50 µg/mL in assay [5]. Also, the IC80 in assay [1] was 1.64 µg/mL; in assay [2], more than 50 µg/mL; in assay [3], more than 50 µg/mL; in assay [4], more than 50 µg/mL; in assay [5], more than 50 µg/mL. The MPI in assay [1] stood at 98; in assay [2], 53; in assay [3], 0; in assay [4], 23; in assay [5], 0.
